Source: FireProtDB (doi:10.1021/bi00432a026)

Conditions: Aspergillus oryzae (strain ATCC 42149 / RIB 40), DSC, reversible: yes, whole UniProt chain shown; for denaturant m value / denaturant midpoint (higher = more stable) / unfolding free energy: Urea; for Tm / heat capacity change of unfolding / unfolding enthalpy (calorimetric): Thermal
[1] = pH 2.8, 27.75 °C, glycine 30 mM

B1: Guanyl-specific ribonuclease T1 wild type, P00651 (protein)
chain: MMYSKLLTLTTLLLPTALALPSLVERACDYTCGSNCYSSSDVSTAQAAGYQLHEDGETVGSNSYPHKYNNYEGFDFSVSSPYYEWPILSSGDVYSGGSPGADRVVFNENNQLAGVITHTGASGNNFVECT
denaturant m value (pH 2.8, 17.1 °C, glycine 30 mM): 2.44 kcal/mol/M | denaturant midpoint (higher = more stable) (pH 2.8, 17.1 °C, glycine 30 mM): 2.25 M | unfolding free energy (pH 2.8, 17.1 °C, glycine 30 mM): 22.6 kJ/mol | denaturant m value (pH 2.8, 21.1 °C, glycine 30 mM): 2.43 kcal/mol/M | denaturant midpoint (higher = more stable) (pH 2.8, 21.1 °C, glycine 30 mM): 2.02 M | unfolding free energy (pH 2.8, 21.1 °C, glycine 30 mM): 20.3 kJ/mol | denaturant m value (pH 2.8, 24.9 °C, glycine 30 mM): 2.33 kcal/mol/M | denaturant midpoint (higher = more stable) (pH 2.8, 24.9 °C, glycine 30 mM): 1.8 M | unfolding free energy (pH 2.8, 24.9 °C, glycine 30 mM): 18.1 kJ/mol | denaturant m value [1]: 2.45 kcal/mol/M | denaturant midpoint (higher = more stable) [1]: 1.44 M | unfolding free energy [1]: 14.6 kJ/mol | Tm (pH 2.8, glycine 30 mM): 42.6 °C | heat capacity change of unfolding (pH 2.8, glycine 30 mM): 2.2 kcal/mol/K | unfolding enthalpy (calorimetric) (pH 2.8, glycine 30 mM): 397 kJ/mol | denaturant m value (pH 5.95, 19.05 °C, MES 30 mM): 1.19 kcal/mol/M | denaturant midpoint (higher = more stable) (pH 5.95, 19.05 °C, MES 30 mM): 6.64 M | unfolding free energy (pH 5.95, 19.05 °C, MES 30 mM): 33.2 kJ/mol | denaturant m value (pH 5.95, 22 °C, MES 30 mM): 1.19 kcal/mol/M | denaturant midpoint (higher = more stable) (pH 5.95, 22 °C, MES 30 mM): 6.32 M | unfolding free energy (pH 5.95, 22 °C, MES 30 mM): 31.6 kJ/mol | denaturant m value (pH 5.95, 29.1 °C, MES 30 mM): 1.18 kcal/mol/M | denaturant midpoint (higher = more stable) (pH 5.95, 29.1 °C, MES 30 mM): 5.45 M | unfolding free energy (pH 5.95, 29.1 °C, MES 30 mM): 27.2 kJ/mol | Tm (pH 5.95, MES 30 mM): 52.8 °C | heat capacity change of unfolding (pH 5.95, MES 30 mM): 1.49 kcal/mol/K | unfolding enthalpy (calorimetric) (pH 5.95, MES 30 mM): 436 kJ/mol | denaturant m value (pH 7, 19.2 °C, MOPS 30 mM): 1.21 kcal/mol/M | denaturant midpoint (higher = more stable) (pH 7, 19.2 °C, MOPS 30 mM): 5.26 M | unfolding free energy (pH 7, 19.2 °C, MOPS 30 mM): 26.3 kJ/mol | denaturant m value (pH 7, 21.1 °C, MOPS 30 mM): 1.1 kcal/mol/M | denaturant midpoint (higher = more stable) (pH 7, 21.1 °C, MOPS 30 mM): 4.98 M | unfolding free energy (pH 7, 21.1 °C, MOPS 30 mM): 24.9 kJ/mol | denaturant m value (pH 7, 23.05 °C, MOPS 30 mM): 1.2 kcal/mol/M | denaturant midpoint (higher = more stable) (pH 7, 23.05 °C, MOPS 30 mM): 4.86 M | unfolding free energy (pH 7, 23.05 °C, MOPS 30 mM): 24.3 kJ/mol | denaturant m value (pH 7, 25 °C, MOPS 30 mM): 1.2 kcal/mol/M | denaturant midpoint (higher = more stable) (pH 7, 25 °C, MOPS 30 mM): 4.58 M | unfolding free energy (pH 7, 25 °C, MOPS 30 mM): 22.9 kJ/mol | denaturant m value (pH 7, 27 °C, MOPS 30 mM): 1.2 kcal/mol/M | denaturant midpoint (higher = more stable) (pH 7, 27 °C, MOPS 30 mM): 4.14 M | unfolding free energy (pH 7, 27 °C, MOPS 30 mM): 20.7 kJ/mol | denaturant m value (pH 7, 29 °C, MOPS 30 mM): 1.27 kcal/mol/M | denaturant midpoint (higher = more stable) (pH 7, 29 °C, MOPS 30 mM): 3.93 M | unfolding free energy (pH 7, 29 °C, MOPS 30 mM): 19.7 kJ/mol | Tm (pH 7, MOPS 30 mM): 48.2 °C | heat capacity change of unfolding (pH 7, MOPS 30 mM): 1.72 kcal/mol/K | unfolding enthalpy (calorimetric) (pH 7, MOPS 30 mM): 398 kJ/mol | denaturant m value (pH 7.9, 19.05 °C, HEPPSO 30 mM): 1.11 kcal/mol/M | denaturant midpoint (higher = more stable) (pH 7.9, 19.05 °C, HEPPSO 30 mM): 4.19 M | unfolding free energy (pH 7.9, 19.05 °C, HEPPSO 30 mM): 21 kJ/mol | denaturant m value (pH 7.9, 22 °C, HEPPSO 30 mM): 1.25 kcal/mol/M | denaturant midpoint (higher = more stable) (pH 7.9, 22 °C, HEPPSO 30 mM): 3.91 M | unfolding free energy (pH 7.9, 22 °C, HEPPSO 30 mM): 19.5 kJ/mol | denaturant m value (pH 7.9, 25 °C, HEPPSO 30 mM): 1.28 kcal/mol/M | denaturant midpoint (higher = more stable) (pH 7.9, 25 °C, HEPPSO 30 mM): 3.44 M | unfolding free energy (pH 7.9, 25 °C, HEPPSO 30 mM): 17.2 kJ/mol | denaturant m value (pH 7.9, 28.95 °C, HEPPSO 30 mM): 1.19 kcal/mol/M | denaturant midpoint (higher = more stable) (pH 7.9, 28.95 °C, HEPPSO 30 mM): 2.95 M | unfolding free energy (pH 7.9, 28.95 °C, HEPPSO 30 mM): 14.7 kJ/mol | Tm (pH 7.9, HEPPSO 30 mM): 43.3 °C | heat capacity change of unfolding (pH 7.9, HEPPSO 30 mM): 1.65 kcal/mol/K | unfolding enthalpy (calorimetric) (pH 7.9, HEPPSO 30 mM): 364 kJ/mol
